In the supplement of paper PMC10567573:

B1: CLCN6 (parent)
chain: FQSISLRKIQFNFPYFRSDRDKRD
B2: PLAGL1 (parent)
chain: DPNKMAFGCEECGKKYNTMLGYKR

Variants of: B1
Assay: protein stability index of a GFP-peptide fusion (GPS, HEK-293T) (PSI 1-6); higher = more stable
Conditions: c terminus: a fixed tail appended
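Note: lentivirally expressed fusions sorted by FACS into six bins by GFP to DsRed ratio, PSI derived from sequencing read proportions per bin multiplied by bin number.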

Protein stability index, by site and new letter:
F16: E 2.22 | W 2.08 | I 2.18 | T 1.9 | C 1.52 | D 2.74 | Q 2.39
S18: V 1.25 | P 1.6 | H 1.93 | N 2.62 | T 2.31
K22: D 1.92 | S 2.72 | H 1.34 | T 2.17 | C 3.83 | P 1.66 | Y 2.27
R23: D 1.72 | F 2.01 | Q 2.39 | S 1.29 | L 1.35 | W 1.26 | G 2.85 | Y 1.28 | M 1.38 | C 1.67 | E 1.86 | I 1.69 | P 3.46 | A 1.73 | N 1.81
Q10: L 1.67 | C 2.6 | V 2.31 | Y 1 | F 1.52 | K 1.67 | P 1.74 | N 1.95 | A 1.56
R7: T 1.78 | K 1.59 | Q 1.62 | W 1.77 | C 1.81 | I 1.77 | E 2.56 | H 2.02 | M 1.21
D21: S 3.06 | Y 1.22 | V 2.94 | R 1.19 | A 3.22 | H 2.02 | C 2.4
I9: D 1.72 | H 1.83 | G 1.44 | R 2.02 | N 1.47 | C 1.98 | W 1.78 | S 2
Q2: E 2.69 | A 2.17 | Y 1.33 | N 1.62 | L 2.31 | G 1.54
I4: T 2.21 | L 2.44 | A 2.71 | S 1.74 | G 2.02 | P 2.19 | Y 1.42 | Q 1.9 | M 3
S5: D 1.96 | R 1.77 | E 2.21 | A 1.82 | F 2.62 | K 1.7 | P 1.82 | H 1.74 | I 1.4 | N 1.82 | M 1.46
N12: I 2.06 | A 1.09 | D 1.53 | S 1.65 | K 2.04
S3: P 2.29 | D 2.19 | N 1.82 | L 1.08 | G 1.89 | R 1.38 | Q 1.66 | A 1.4 | E 2.73
F11: P 1.28 | H 1.74 | Q 1.25 | L 2.54 | S 1.56 | C 1.96 | G 1.41
D19: I 2 | A 1.67 | Q 1.85 | L 1.47 | R 1.9 | M 2.01 | P 2.16
L6: P 2.78 | E 2.08 | S 1.66 | N 1.68 | H 2.03
K8: Q 2.12 | S 1.31 | I 2.78 | M 2.08 | H 2.92 | P 2.92 | Y 2.09 | R 1.74 | E 2.63
F13: Q 2.28 | D 1.98 | Y 2.49 | V 1.43 | P 1.75 | C 2.2
D24: S 2.23 | H 2.1 | A 1.68 | M 1.66 | Y 1.58 | C 2.75 | V 1.31 | Q 1.37 | F 1.93
R17: I 1.56 | F 1.52 | G 1.71 | V 2.15 | H 2.35 | C 1.11 | N 2.21
P14: H 1.67 | C 1.82 | I 1.43 | G 1.69 | L 1.24
Y15: T 2.75 | G 2.68 | S 2.58 | H 2.78 | K 2 | C 2.21 | P 2.41 | N 2.78
R20: W 3.61 | P 1.45 | N 1.72 | A 2.17 | V 1.73 | M 1.72 | E 2.73
F1: N 3.76 | A 2.6 | P 2.29 | D 3.34 | S 3.4 | H 2.83 | Q 3.52

Variants of: B2
Assay: as above
Conditions: c terminus: a fixed tail appended

Protein stability index of substitutions, site by site:
K4: T 2.61 | E 3.3 | P 3.01 | V 1.98 | R 1.64 | D 2.53 | H 2.35 | W 2.08 | Y 2.59 | Q 2.61 | S 2.48 | M 2.6 | G 2.72 | A 2.35 | C 2.45 | I 1.95 | L 2.85 | F 1.61 | N 2.55
A6: G 2.02 | L 3.02 | W 2.9 | T 2.29 | H 2.53 | C 2.35 | I 2.46 | E 3.09 | M 2.75 | S 2.33 | P 2.53 | Y 2.19 | Q 2.36 | N 2.58 | D 2.9 | K 2.97 | F 2.32 | R 2.19 | V 2.04
M5: G 2.81 | W 2.35 | N 2.48 | R 2.36 | D 3.54 | K 2.26 | F 2.15 | I 2.38 | L 2.67 | H 2.73 | A 2.63 | S 2.81 | V 1.93 | P 2.2 | Q 2.26 | E 3.31 | C 3.04 | T 2.88 | Y 2.33
P2: F 2.73 | H 1.86 | M 3.12 | D 2.54 | L 2.15 | N 2.12 | G 2.05 | T 2.03 | V 2 | R 3.98 | Q 1.92 | E 2.04 | W 1.82 | S 2.7 | C 2.28 | K 2.57 | A 2.26 | Y 2.51 | I 1.88
G8: Y 2.21 | N 2.74 | L 2.82 | K 2.14 | T 3.12 | W 2.03 | H 2.5 | V 2.92 | M 1.96 | Q 1.98 | P 2.31 | I 2.76 | D 2.73 | E 2.74 | F 1.68 | S 2.19 | C 2.19
D1: L 2.34 | N 3.64 | A 1.94 | K 2.09 | P 2.08 | V 2.7 | T 2.13 | M 2.26 | I 2.16 | Q 2.05 | S 2.05 | C 2.18 | R 1.8 | E 1.77 | H 2.05 | G 2.22
N3: A 2.21 | C 2.23 | Y 2.14 | W 2.23 | F 2.15 | Q 3.51 | V 2.69 | E 2.52 | H 2.61 | S 2.87 | T 2.79 | G 2.8 | I 2.19 | P 2.26 | R 2.25 | M 2.82 | L 3.54 | K 3.1
C9: E 3.52 | A 3.38 | D 3.78 | G 3.67 | F 3.32
F7: A 3.27 | V 2.43 | G 3.17 | P 2.57 | S 3.43 | T 2.3 | Q 3.45 | H 2.19 | R 1.92 | W 1.74 | C 2.22 | Y 2.53 | N 2.45 | D 2.59 | K 2.31 | E 3.21 | M 2.58 | I 2.98
